Results from the Human Domainome abundance scans (Beltran et al. 2025).
± gives the uncertainty stated by the source.

B1: POU domain, class 2, transcription factor 3, residues 186 to 260; numbered along this chain, Q9UKI9 (parent)
chain: SDLEELEKFAKTFKQRRIKLGFTQGDVGLAMGKLYGNDFSQTTISRFEALNLSFKNMCKLKPLLEKWLNDAESSP

Variants of: B1
Experiment: abundance fitness (aPCA) (normalised: wild type 0, dead -1); higher = more abundant; growth selection in yeast, the domain comes from the species named
Details: Homo sapiens

Variant	abundance fitness
SDLEELEKFAKTFKQRRIKLGFTQGDVGLAMGKLYGNDFSQTTISRFEALNLSFKNMCKLKPLLEQWLNDAESSP	-0.036 ± 0.057
SDLEELEKFAKTFKQRRIKLGFTQGDVGLAMGKLYGNDFSQTTISRFEALNLSFKNMCKLKPLLEKWLNNAESSP	-0.066 ± 0.12
SDLEELEKFAKTFKQRRIKLGFTQGDVGLAMGKLFGNDFSQTTISRFEALNLSFKNMCKLKPLLEKWLNDAESSP	-0.182 ± 0.23
SDLEELEKFAKTFKQRRIKLGFTQGDVGMAMGKLYGNDFSQTTISRFEALNLSFKNMCKLKPLLEKWLNDAESSP	0.05 ± 0.031
SDLEELEKFAKTFKQRRIKLGFTQGDVGLAMGKLYGNDFSQTTISRFEALNLSFDNMCKLKPLLEKWLNDAESSP	0.037 ± 0.052
SDLEELEKFAKTFKQRRIKLGFTQGDVGLAMGKLYGNDFSQTTISRFEALNLSFKNMCWLKPLLEKWLNDAESSP	-0.129 ± 0.038
SDLEELEKFAKTFKQRRIKLGFTQGDVGLAMGKLYGNDFSQTTISRFEALWLSFKNMCKLKPLLEKWLNDAESSP	-0.282 ± 0.044
SDLEELEKFAKTFKQRRIKLGFTQGDVGLAMGKLYGNDFSQTTISRFEALILSFKNMCKLKPLLEKWLNDAESSP	-0.151 ± 0.068
SDLEELEKFAKTFKQRRIKLGFTQGDVGLAMGKLYGNDFSVTTISRFEALNLSFKNMCKLKPLLEKWLNDAESSP	-0.081 ± 0.026
SDLEELEKFAKTFKQRRIKLGFTQGDVGLAMGKLYGNDFSMTTISRFEALNLSFKNMCKLKPLLEKWLNDAESSP	-0.055 ± 0.031
SDLEELEKFAKTFKQRRIKLGFTQGDVGLAMGKLYGNDFSQTTISRFEALNLSFKNMCKHKPLLEKWLNDAESSP	-0.285 ± 0.14
SDLEELEKFAKTFKQRRIKLGFTQGDVGLAMGKLYGNDFSQTTISRFEALNLSFKNMCKFKPLLEKWLNDAESSP	-0.079 ± 0.066
SDLEELEKFAKTFKQRRIKLGFTQGDVGLAMGKLYGNDFSQTTISRFEALNLSFKNMCKLKPPLEKWLNDAESSP	-0.092 ± 0.047
SDLEELEKFAKTFKQRRIKLGFTQGDVGLAMGKLYGNDFSQTTISRFEALNLSFKNMCKLKPALEKWLNDAESSP	0.024 ± 0.039
SDLEELEKFAKTFKQRRIKLGFTQGDVGLAMGKLYGNDFSQTTISRFEALNLSFKNMCKLKPFLEKWLNDAESSP	-0.221 ± 0.079
SDLEELEKFAKTFKQRRIKLGFTQGDVGLAMGKLYGNDFSQTTISRFEALNLSFKNMCKLKPGLEKWLNDAESSP	-0.06 ± 0.03
SDLEELEKFAKTFKQRRIKLGFTQGDVGLAMGKLYGNDFSQTTISRKEALNLSFKNMCKLKPLLEKWLNDAESSP	-1.15 ± 0.28
SDLEGLEKFAKTFKQRRIKLGFTQGDVGLAMGKLYGNDFSQTTISRFEALNLSFKNMCKLKPLLEKWLNDAESSP	-0.045 ± 0.027
SDLEELEKFAKTFKQRRIKLGFTQGDVGLAMGKLYGNDFSQTTISRFEALNLSFKNMCKLNPLLEKWLNDAESSP	-0.628 ± 0.14

Variant	abundance fitness
SDLEELEKFAKTFKQRRIKLGFTQGDVGLAMGKLYGNDFSQTTISRFEALNLSFKNMCKLKPLLEKWLNDAPSSP	-0.269 ± 0.058
SDLEELEKFAKTFKQRRKKLGFTQGDVGLAMGKLYGNDFSQTTISRFEALNLSFKNMCKLKPLLEKWLNDAESSP	-0.028 ± 0.042
SDLEELEKFAKTFKQRRIKLGFTQGDVGLAMGKLYGNDFSQTTISRFEALNLSFKNMCKLKPLLEKQLNDAESSP	-0.761 ± 0.1
SDLEELEKFAKTFKQRRIKLGFTQGDVGLAMGKLYGNDFSQTTISRFEALNLSFKNMCKLKPLLEKNLNDAESSP	-0.909 ± 0.24
SDLEELEKFAKTFKQRRIKLGFTQGDVGLAMGKLYGNDFSQTTICRFEALNLSFKNMCKLKPLLEKWLNDAESSP	0.022 ± 0.038
SDLEELEKFAKTFKQRRIKLGFTQGDVTLAMGKLYGNDFSQTTISRFEALNLSFKNMCKLKPLLEKWLNDAESSP	0.087 ± 0.46
SDLEELEKFAKTFKQRRIKLGFTQGDVGLAMGKLYGNDFSQTTISRFEALNLSFKNMCKLKPLLEKWLNDAESSA	0.044 ± 0.066
SDLEELEKFAKTFKQRRIKLGFTQGDVGLAMGKLYGNDFSQTTISRFEALNLSFKNMCKLKPLLEKWLNDAESSS	-0.067 ± 0.071
SDLEELEKFAKTFKQRRIKLGFTQGDVGLAMGKLYGNDFSQTTISRFEALNLSFKNMCKLKVLLEKWLNDAESSP	-0.128 ± 0.036
SDLEELEKFAKTFKQRRIKLGFTQGDVGLAMGKLYGNDFSQTTISRFEALNLSFKNMCKLKHLLEKWLNDAESSP	-0.025 ± 0.12
SDLEELEKFAKTFKQRRIKLGFTQGDVGLAMGKLYGNDFSQTTISRFEALNLSFKNCCKLKPLLEKWLNDAESSP	-0.166 ± 0.058
SDLEELEKFAKTFKQRRIKLGFTQCDVGLAMGKLYGNDFSQTTISRFEALNLSFKNMCKLKPLLEKWLNDAESSP	0.105 ± 0.3
SDLEELEKFAKTFKQRRIKLGFTQGDVGLAMGKLYGNDFSQTTISRFEALNLVFKNMCKLKPLLEKWLNDAESSP	-0.598 ± 0.043
SDLEELEKFAKTFKQRRIKLGFTQGDVGLAMGKLYGNDFSQTTISRFEALNMSFKNMCKLKPLLEKWLNDAESSP	-0.004 ± 0.044
SDLEELEKFAKTFKQRRIKLGFTQGDVGLAMGKLYGNDFSQTTISRFEALNLSFKNMCKLKPLLEKWLYDAESSP	-0.081 ± 0.099
SDLEELEKFAKTFKQRRIKLGFTQGDVGLAMGKLYGNDFSQTTISRFEALNLSFKNMCKLKPLLEKWLFDAESSP	0.061 ± 0.068
SDLEELEKFAKTFKQRRIKLGFTQGDVGLAMGKLYGNDFSQTTISRFEALNLSFKNMCKLKPLLEKWLADAESSP	-0.029 ± 0.045
SDLEELEKFAKTFKQRRIKLGFTQGDVGLAMGKLYGNDFSQTTISRFEALNLSFKNMCKLKPLLEKWFNDAESSP	-0.312 ± 0.12
